Assay results: patent publication US20060134801A1, “Methods and compositions involving MDA-7” (Board of Regents, The University of Texas System, priority 2003, published 2006)

Tests used:
Format in all cases: cell-based, human
[1] = system: iNOS; assay: iNOS expression in melanoma cell lines (immunostaining of cytospins); set-up: dose or concentration left out as unconfirmed; conditions: A375; 48 h
Protocol: Replication-deficient human type 5 adenovirus (Ad5) carrying the mda-7 gene was obtained from Introgen Therapeutics (Houston, Tex.). The mda-7 gene was linked to an internal CMV-EE promoter and followed by SV40 polyadenylation. Ad-Luc and Ad-CMV polyadenylation (luciferase and empty vector, respectively), were used as control viruses. Cells were plated 1 day before infection. […] Experimental conditions were optimized to achieve MDA-7 protein expression by >70% of cells, based on results of immunohistochemical staining.
[…] At baseline, these melanoma cell lines express high levels of iNOS and are negative for MDA-7. Forty-eight h after vector treatment, the cells were collected, and cytospins were prepared to analyze iNOS expression. […] It has been shown previously that MDA-7 is secreted by Ad-mda7-infected melanoma cells (Lebedova et al., 2002; Mhashilkar et al., 2001).

[2] = system: A549 and H1299; assay: Effect of secreted MDA-7 protein on lung cancer cells
Protocol: The number of apoptotic cells was measured by propidium iodide staining and FACS analysis. Cells were harvested, pelleted by centrifugation and resuspended in phosphate-buffered saline containing 50 μg/ml propidium iodide, 0.1% Triton X-100, and 0.1% sodium citrate. Samples were stored at 4° C. for 1-3 hours and vortexed prior to FACS analysis (Becton-Dickenson FACScan, Mountain View, Calif.; FL-3 channel).

[3] = system: STAT-3; assay: STAT-3 activation, western blot and immunofluorescence; conditions: HUVEC; 10 ng/ml; 4 h to 24 h
Protocol: Therefore, studies were conducted to determine the activation of STAT-3 expression in endothelial cells after treatment with sMDA-7. HUVEC were seeded in 6-well plates (5×10^5 cells/well) and treated with sMDA-7 (10 ng/ml). Untreated cells served as negative controls. Cells were harvested at 4 h and 24 h after treatment and analyzed for STAT-3 expression by western blot analysis as previously described (Mhashilkar et al., 2001; Pataer et al., 2002). […] (pSTAT-3) protein was detected using rabbit anti-human pSTAT-3 antibody (1:1000, Cell Signaling Technology, Beverly, Mass.) and horseradish peroxidase-labeled secondary antibody (Amersham Biosciences, Piscataway, N.J.). Finally, the proteins were visualized on enhanced chemiluminescence film (Hyperfilm, Amersham Biosciences, Piscataway, N.J.) by application of Amersham's enhanced chemiluminescence western blotting detection system. STAT-3 protein expression level was quantitated after normalization with total STAT-3 protein expression using Image Quant software (Molecular Dynamics, Amersham Pharmacia Biotech, Piscataway, N.J.).
Activation of STAT-3 was also determined by immunofluorescence assay. […] Pictures were taken through a fluorescence microscope 1-2 h after staining.

[4] = system: melanoma cell lines; assay: Trypan blue viability, melanoma cell lines (panel)
Text: rhMDA-7 (IL-24) protein was purified from 293-mda7 cells using affinity chromatography. Various lots of protein ranged from 30% ->80% purity based upon silver stain. The rhMDA-7 protein was applied to melanoma cell lines, and cells assessed for viability using the Trypan blue assay. […] Treatment of melanoma cells with rhMDA-7 results in rapid activation (via phosphorylation) of STAT3. The cytotoxicity observed in melanoma cells is inhibited by anti-MDA-7 antibodies.
The mechanism of the anti-tumor activity of rhMDA-7 was also evaluated. Melanoma cells were treated with rhMDA-7 protein and assessed for apoptosis using the TUNEL assay. […] These studies were performed with purified rhMDA-7 protein. The melanoma cells have also been treated with supernatant from 293-mda7 cells or control 293 cells. Only the 293-mda7 supernatant causes cell killing.

[5] = system: IRF-1 and IRF-2 in MeWo cells; assay: Immunoblotting of IRF-1 and IRF-2; conditions: within 4 h
Protocol: Two×10^6 cultured melanoma cell lines were rinsed twice in ice-cold PBS and lysed in 60 μl of lysis buffer [25 mM Tris, 140 mM NaCl, and 1% NP40 (pH 7.5)] containing 5 mM EDTA, 0.2 mM orthovanadate, 10 mM NaF, leupeptin, aprotinin, and phenylmethylsulfonyl fluoride for 10 min on ice. Equal amounts of total protein (measured with DC Protein Assay Reagent; Bio-Rad Labs, Hercules, Calif.) were loaded on a standard 10% SDS polyacrylamide gel, and fractionated proteins were electroblotted onto a nitrocellulose membrane. Nitrocellulose membranes were blocked for 1 h at room temperature using 5% dry milk in 1× PBS and washed three times for 5 min each in PBS containing 0.05% Tween 20 at room temperature. The membranes were incubated overnight at 4° C. in a sealed bag with a 1:2000 dilution of IRF-1 and IRF-2 polyclonal antibodies in 10 ml of 5% dry milk/0.1% Tween 20 in 1× PBS. The membranes were washed three times for 5 min each in PBS containing 0.05% Tween 20, and then incubated with peroxidase-conjugated antirabbit IgG secondary antibody (Transduction Laboratories) at 1:2000 dilution in PBS with 5% dry milk and 0.1 % Tween 20 for 45 min at room temperature. The blots were visualized using an enhanced chemiluminescence detection kit (Amersham, Arlington Heights, Ill.).

B1: sMDA-7: soluble secreted human MDA-7 (IL-24) protein purified from stably transfected 293-mda-7 cells (protein)
chain: AQGQEFHFGPCQVKGVVPQKLWEAFWAVKDTMQAQDNITSARLLQQEVLQNVSDAESCYLVHTLLEFYLKTVFKNYHNRTVEVRTLKSFSTLANNFVLIVSQLQPSQENEMFSIRDSAHRRFLLFRRAFKQLDVEAALTKALGEVDILLTWMQKFYKL
- iNOS expression [1]: clear down-regulation
- cell growth inhibition or cell death [2]: did not induce cell growth inhibition or cell death
- increase in pSTAT-3 expression over PBS treated control [3]: 2-3 times
- death in melanoma cells ([4]; 0-20 ng/ml, 4 days): dose-dependent death
- melanoma lines showing cytotoxicity ([4]; 40 ng/ml for 3 days): 5 of 6
- fall in IRF-1 expression [5]: ~4 fold
- increase in IRF-2 expression [5]: 4.7 fold
